Assay results as given in publication PMC5823934, “EGF receptor kinase suppresses ciliogenesis through activation of USP8 deubiquitinase” (Nature Communications, 2018).

Molecular target: T1, GST-USP8 (human, UniProt P40818 1-1118)
T1 construct: USP8 deubiquitinase, human cDNA FLJ76940 from the Human Gene and Protein Database, inserted in frame to GST in pGEX-6P-3 (BamHI/XhoI); Wild type; also called bacterially purified GST-USP8; source: E. coli BL21 (DE3), purified (glutathione-sepharose 4B)
T1 sequence (looked up): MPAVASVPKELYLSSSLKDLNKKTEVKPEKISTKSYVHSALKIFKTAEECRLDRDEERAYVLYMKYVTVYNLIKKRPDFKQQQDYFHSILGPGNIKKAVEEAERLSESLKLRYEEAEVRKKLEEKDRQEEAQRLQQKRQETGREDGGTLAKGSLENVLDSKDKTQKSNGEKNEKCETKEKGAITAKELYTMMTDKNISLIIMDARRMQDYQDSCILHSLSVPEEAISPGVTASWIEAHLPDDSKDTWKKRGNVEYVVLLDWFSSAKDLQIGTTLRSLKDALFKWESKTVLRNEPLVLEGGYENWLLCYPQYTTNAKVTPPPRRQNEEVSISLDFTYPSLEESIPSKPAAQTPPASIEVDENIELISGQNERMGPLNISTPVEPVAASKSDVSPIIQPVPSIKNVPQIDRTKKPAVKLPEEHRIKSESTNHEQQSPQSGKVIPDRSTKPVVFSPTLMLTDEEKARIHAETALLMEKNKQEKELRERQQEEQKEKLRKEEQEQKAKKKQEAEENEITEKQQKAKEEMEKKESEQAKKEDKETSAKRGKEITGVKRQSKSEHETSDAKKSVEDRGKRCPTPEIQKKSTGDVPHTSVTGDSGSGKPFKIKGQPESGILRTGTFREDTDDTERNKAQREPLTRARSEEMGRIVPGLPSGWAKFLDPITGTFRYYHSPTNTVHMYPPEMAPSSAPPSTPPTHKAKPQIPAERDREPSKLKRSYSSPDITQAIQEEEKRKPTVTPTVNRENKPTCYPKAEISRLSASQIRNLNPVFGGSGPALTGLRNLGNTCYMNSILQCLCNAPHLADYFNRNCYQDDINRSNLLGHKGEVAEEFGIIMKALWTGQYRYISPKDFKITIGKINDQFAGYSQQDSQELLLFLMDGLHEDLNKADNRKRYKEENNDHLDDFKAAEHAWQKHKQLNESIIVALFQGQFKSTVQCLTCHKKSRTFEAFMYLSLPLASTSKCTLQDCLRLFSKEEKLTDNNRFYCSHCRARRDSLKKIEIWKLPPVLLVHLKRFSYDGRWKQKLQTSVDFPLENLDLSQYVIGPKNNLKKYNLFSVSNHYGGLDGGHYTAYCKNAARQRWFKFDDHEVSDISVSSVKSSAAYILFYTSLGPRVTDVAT
Assay: pull-down; MBP-trichoplein (1 ug) and GST-USP8 (1 ug) in cell lysis buffer (20 mM Tris-HCl pH 7.5, 150 mM NaCl, 2 mM beta-glycerophosphate, 2 mM EGTA, 1% Triton X-100), 2 h at 4 °C; glutathione-sepharose 4B; immunoblot
Conditions: both partners purified

B1: MBP-trichoplein (natural protein, human, UniProt Q9BT92 1-498, looked up)
chain: MALPTLPSYWCSQQRLNQQLARQREQEARLRQQWEQNSRYFRMSDICSSKQAEWSSKTSYQRSMHAYQREKMKEEKRRSLEARREKLRQLMQEEQDLLARELEELRLSMNLQERRIREQHGKLKSAKEEQRKLIAEQLLYEHWKKNNPKLREMELDLHQKHVVNSWEMQKEEKKQQEATAEQENKRYENEYERARREALERMKAEEERRQLEDKLQAEALLQQMEELKLKEVEATKLKKEQENLLKQRWELERLEEERKQMEAFRQKAELGRFLRHQYNAQLSRRTQQIQEELEADRRILQALLEKEDESQRLHLARREQVMADVAWMKQAIEEQLQLERAREAELQMLLREEAKEMWEKREAEWARERSARDRLMSEVLTGRQQQIQEKIEQNRRAQEESLKHREQLIRNLEEVRELARREKEESEKLKSARKQELEAQVAERRLQAWEADQQEEEEEEEARRVEQLSDALLQQEAETMAEQGYRPKPYGHPKIAWN
notes: also called recombinant MBP-trichoplein; source: E. coli BL21 CodonPlus RP, purified (amylose resin)
- binding result: binds
